What was measured:
NicA2 = biological target: T1, NicA2 (Pseudomonas putida, UniProt F8G0P2); assay: biochemical
T1 sequence (F8G0P2 1-482): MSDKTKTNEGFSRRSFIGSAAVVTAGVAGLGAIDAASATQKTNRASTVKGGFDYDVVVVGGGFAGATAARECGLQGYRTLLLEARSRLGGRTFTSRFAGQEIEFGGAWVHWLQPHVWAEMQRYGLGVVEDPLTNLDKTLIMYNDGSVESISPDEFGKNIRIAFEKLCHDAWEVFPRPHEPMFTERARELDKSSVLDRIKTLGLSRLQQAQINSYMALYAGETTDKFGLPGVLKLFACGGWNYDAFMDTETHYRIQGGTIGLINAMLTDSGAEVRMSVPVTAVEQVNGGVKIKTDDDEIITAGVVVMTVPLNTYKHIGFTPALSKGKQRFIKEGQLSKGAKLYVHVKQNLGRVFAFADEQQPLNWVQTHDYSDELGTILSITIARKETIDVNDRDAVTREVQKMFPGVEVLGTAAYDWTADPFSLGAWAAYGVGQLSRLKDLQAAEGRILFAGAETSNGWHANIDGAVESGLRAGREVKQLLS

[1] = biological target: Nicotine oxidoreductase (NicA2) (Pseudomonas putida S16) (UniProt F8G0P2); assay: stopped-flow absorbance spectrophotometry

| Compound | Kd (NicA2) | bimolecular rate constant (kon), first phase, N-methylmyosmine-bound NicA2 [1] | bimolecular rate constant (kon), second phase, N-methylmyosmine-bound NicA2 [1] | kon, first phase (CycNox with NicA2-Flred) [1] |
| --- | --- | --- | --- | --- |
| c1cncc(C2=NCCC2)c1 [myosmine] | 268 ± 3 µM | – | – | – |
| CycN (cytochrome c of Pseudomonas putida S16) (natural protein) | – | 140000 M⁻¹ s⁻¹ | 77000 M⁻¹ s⁻¹ | 1e+06 M⁻¹ s⁻¹ |
